Molecular target: HLA-A*02:01
Experiment: IEDB peptide-MHC binding, purified MHC/direct/fluorescence; filed as Kd, often an IC50 or EC50 that approximates it; ≥ and ≤ were set here for values at or beyond the usual limits of such assays
Details: source organism: Human immunodeficiency virus 1

First: SLYNTITVL
Second: SLYNAVVTL
The Kd of the first is 8.8-fold higher: 88 nM for the first, 10 nM for the second. The second binds more tightly here.

Compared with SLFNTVATV, SLYNTISVL is 2.4-fold higher in Kd: 25 nM for the first, 61 nM for the second.

First: SLYNAVATL
Second: SLYNTVVTL
The Kd of the first is 2.2-fold higher: 45 nM for the first, 20 nM for the second.

SLYNLVAVL and SLYNTIAIL are within 1.5-fold of each other in Kd: 724 nM for the first, 500 nM for the second.

First: SVYNTVATL
Second: SLYNTVSTL
The Kd of the first is 1.6-fold higher: 283 nM for the first, 181 nM for the second. The second binds more tightly here.

First: SLFNTVVTL
Second: SLFNAVVTL
The Kd of the first is 3.2-fold higher: 32 nM for the first, 10 nM for the second.
